From the supplement of paper PMC11136658

Test system: peptide library, one residue held at a place counted from the Y acceptor
Test: relative phosphorylation of the sub-library (ratio to the mean residue at this position); higher = residue favoured
Summary of the method: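 Every value reflects phosphorylation relative to the mean randomized residue. The sum of the 18 randomized residues, or 16 in the Ser/Thr-free library, served to normalize intensities at each position, which were then multiplied by that number. Intensities came from phosphorimaging with ImageQuant of biotinylated Tyr-centred peptides captured on streptavidin membranes after 90 min with purified recombinant kinases and 50 μM ATP plus γ-32P-ATP.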

Chain of PDHK4, construct: Full length, human (Q16654 whole entry, looked up): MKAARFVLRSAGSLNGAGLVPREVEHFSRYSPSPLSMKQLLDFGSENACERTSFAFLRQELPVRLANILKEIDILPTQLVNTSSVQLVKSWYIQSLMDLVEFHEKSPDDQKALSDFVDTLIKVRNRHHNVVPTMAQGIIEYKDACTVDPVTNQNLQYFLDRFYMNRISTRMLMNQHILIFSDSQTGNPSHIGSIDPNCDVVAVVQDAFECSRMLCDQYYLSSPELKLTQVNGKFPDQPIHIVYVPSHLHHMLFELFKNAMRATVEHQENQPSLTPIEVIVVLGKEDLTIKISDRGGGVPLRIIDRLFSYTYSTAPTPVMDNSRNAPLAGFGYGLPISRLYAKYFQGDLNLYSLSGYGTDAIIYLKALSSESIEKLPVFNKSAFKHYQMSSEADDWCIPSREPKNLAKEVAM
Chain of PTK2, construct: Full length, human (Q05397 whole entry, looked up): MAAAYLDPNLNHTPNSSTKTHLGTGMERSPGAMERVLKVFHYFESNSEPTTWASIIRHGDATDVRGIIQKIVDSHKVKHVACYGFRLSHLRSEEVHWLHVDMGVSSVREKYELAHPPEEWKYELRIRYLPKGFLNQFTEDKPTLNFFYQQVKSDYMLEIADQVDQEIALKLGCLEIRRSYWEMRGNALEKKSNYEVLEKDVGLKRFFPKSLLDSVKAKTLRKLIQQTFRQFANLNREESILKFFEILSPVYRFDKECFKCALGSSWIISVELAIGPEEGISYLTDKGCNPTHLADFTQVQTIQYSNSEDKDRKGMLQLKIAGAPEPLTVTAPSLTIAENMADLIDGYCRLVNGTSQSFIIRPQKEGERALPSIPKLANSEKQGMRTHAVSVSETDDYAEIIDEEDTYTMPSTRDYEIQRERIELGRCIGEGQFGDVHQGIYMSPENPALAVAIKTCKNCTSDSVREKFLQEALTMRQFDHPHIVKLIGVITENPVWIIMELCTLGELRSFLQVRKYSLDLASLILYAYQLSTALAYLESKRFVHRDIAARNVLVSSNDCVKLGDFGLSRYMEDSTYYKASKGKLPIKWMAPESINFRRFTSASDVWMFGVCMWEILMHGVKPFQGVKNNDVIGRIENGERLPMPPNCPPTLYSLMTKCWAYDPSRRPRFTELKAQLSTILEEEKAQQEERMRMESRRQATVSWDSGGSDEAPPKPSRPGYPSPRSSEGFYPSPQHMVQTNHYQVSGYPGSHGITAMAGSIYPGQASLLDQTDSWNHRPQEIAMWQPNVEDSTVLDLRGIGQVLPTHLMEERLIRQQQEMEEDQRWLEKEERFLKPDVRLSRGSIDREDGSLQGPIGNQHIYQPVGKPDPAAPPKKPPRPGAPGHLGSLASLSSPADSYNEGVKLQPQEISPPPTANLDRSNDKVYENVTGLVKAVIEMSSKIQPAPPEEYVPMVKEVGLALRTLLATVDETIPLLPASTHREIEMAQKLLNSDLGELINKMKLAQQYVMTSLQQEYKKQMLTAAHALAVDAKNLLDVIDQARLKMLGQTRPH

PDHK4, construct: Full length, human (from UniProt Q16654)
relative phosphorylation
Details | at +1 | at +2 | at +3 | at +4 | at +5 | at -1 | at -2 | at -3 | at -4 | at -5
A fixed | 0.747 | 0.56 | 0.742 | 0.698 | 0.589 | 0.81 | 0.808 | 0.801 | 0.946 | 0.872
D fixed | 1.19 | 1.6 | 1.29 | 1.41 | 1.34 | 1.15 | 1.15 | 1.25 | 1.27 | 1.31
E fixed | 1.04 | 1.2 | 1.49 | 1.26 | 1.33 | 1.02 | 1.11 | 0.838 | 1.11 | 1.17
F fixed | 0.751 | 0.966 | 0.945 | 0.996 | 1.01 | 0.723 | 0.874 | 0.873 | 0.94 | 0.934
G fixed | 1.01 | 0.938 | 1.02 | 0.95 | 1.05 | 1.17 | 1.24 | 1.26 | 1.19 | 1.1
H fixed | 0.998 | 1.01 | 0.995 | 1.11 | 1.03 | 1.05 | 0.911 | 0.777 | 0.983 | 1.11
I fixed | 0.568 | 0.546 | 0.652 | 0.669 | 0.722 | 0.654 | 0.654 | 0.568 | 0.739 | 0.773
K fixed | 1.04 | 0.95 | 0.777 | 0.863 | 0.777 | 1.14 | 0.926 | 1.25 | 0.945 | 1.02
L fixed | 0.798 | 0.809 | 0.798 | 1.1 | 1.03 | 0.823 | 1.1 | 0.99 | 0.827 | 0.827
M fixed | 0.695 | 0.776 | 0.891 | 0.92 | 0.968 | 0.75 | 0.796 | 0.712 | 0.822 | 0.809
N fixed | 1.49 | 1.3 | 1.16 | 1.15 | 1.06 | 1.34 | 1.21 | 1.14 | 1.01 | 1.07
P fixed | 1.15 | 1.1 | 1.09 | 1.06 | 0.957 | 1.27 | 1.22 | 1.74 | 1.1 | 1.11
Q fixed | 1.39 | 1.42 | 1.19 | 1.26 | 1.21 | 1.32 | 1.11 | 1.24 | 1.02 | 1.03
R fixed | 1.17 | 0.976 | 0.885 | 0.812 | 0.798 | 1.11 | 1.09 | 0.868 | 1.06 | 0.994
V fixed | 0.572 | 0.565 | 0.604 | 0.644 | 0.703 | 0.539 | 0.652 | 0.645 | 0.669 | 0.681
W fixed | 1.39 | 1.28 | 1.47 | 1.1 | 1.44 | 1.13 | 1.15 | 1.05 | 1.37 | 1.18
pThr fixed | 1.31 | 1.69 | 1.35 | 1.51 | 1.1 | 1.43 | 1.19 | 1.42 | 1.32 | 1.43
pTyr fixed | 1.1 | 1.18 | 0.974 | 1.03 | 1.43 | 1.09 | 1.09 | 0.858 | 1.18 | 1.28

PTK2, construct: Full length, human (from UniProt Q05397)
relative phosphorylation
Details | at +1 | at +2 | at +3 | at +4 | at +5 | at -1 | at -2 | at -3 | at -4 | at -5
A fixed | 1.98 | 0.732 | 0.861 | 0.842 | 1.02 | 0.632 | 1.05 | 0.673 | 0.936 | 0.931
D fixed | 1.73 | 1.7 | 0.677 | 0.971 | 1.21 | 5.68 | 1.57 | 1.78 | 1.51 | 1.39
E fixed | 1.85 | 2.34 | 0.705 | 1.19 | 1.23 | 1.38 | 1.77 | 2.18 | 1.61 | 1.37
F fixed | 0.794 | 1.18 | 1.29 | 0.961 | 0.944 | 0.654 | 0.858 | 1.06 | 1.21 | 1.02
G fixed | 1.09 | 0.625 | 0.731 | 1.14 | 1.21 | 0.575 | 1.03 | 0.851 | 1.08 | 1.1
H fixed | 0.724 | 0.825 | 0.752 | 1.17 | 0.86 | 0.57 | 0.801 | 1.42 | 0.891 | 0.935
I fixed | 0.99 | 1.13 | 2.19 | 0.964 | 0.811 | 1.17 | 0.839 | 0.757 | 0.968 | 1.11
K fixed | 0.526 | 0.574 | 0.561 | 0.743 | 0.656 | 0.508 | 0.688 | 0.702 | 0.708 | 0.806
L fixed | 0.66 | 0.909 | 1.58 | 0.792 | 0.933 | 0.784 | 0.814 | 0.801 | 1.08 | 1.04
M fixed | 0.833 | 0.912 | 1.03 | 1.04 | 0.9 | 0.637 | 0.76 | 1.16 | 0.859 | 1.04
N fixed | 0.699 | 1.04 | 0.613 | 0.759 | 0.852 | 0.882 | 1.42 | 1.11 | 0.917 | 0.976
P fixed | 0.506 | 0.653 | 1.5 | 1.07 | 1.63 | 0.553 | 1.25 | 0.665 | 0.895 | 0.934
Q fixed | 0.914 | 0.677 | 0.631 | 0.824 | 0.841 | 0.578 | 0.946 | 0.85 | 1 | 0.909
R fixed | 0.538 | 0.612 | 0.59 | 0.758 | 0.678 | 0.512 | 0.689 | 0.78 | 0.725 | 0.868
S fixed | 1.1 | 0.804 | 0.713 | 0.849 | 1.07 | 0.577 | 1.02 | 0.742 | 0.785 | 0.802
T fixed | 0.879 | 0.815 | 0.795 | 0.815 | 1.21 | 0.76 | 0.765 | 0.702 | 0.724 | 0.808
V fixed | 1.27 | 0.965 | 1.61 | 0.933 | 0.868 | 0.964 | 0.882 | 0.719 | 0.831 | 0.884
W fixed | 0.911 | 1.52 | 1.18 | 2.19 | 1.07 | 0.579 | 0.833 | 1.05 | 1.27 | 1.07
pThr fixed | 5.07 | 4.12 | 0.915 | 1.1 | 1.89 | 7.51 | 2.09 | 1.88 | 1.74 | 1.39
pTyr fixed | 3.81 | 12.2 | 1.18 | 1.35 | 1.58 | 1.35 | 1.33 | 1.76 | 2.01 | 1.55
